{
  "source": "paper PMC2724299",
  "about": "(Nucleic Acids Research, 2009)",
  "proteins": {"B1": {"name": "PAE-EndA linker variant LPEI (6×His-PAE0789 fused through -Leu-Pro-Glu-Ile- to PAE2269) (enzyme, Pyrobaculum aerophilum)", "chain": "MDVLQEQVFKDLKSRGFKIIEQLDDKIFIAEKKERYLFYVMVEGVEVTIQTLLSVINMGETLSMPVVLALVSNDGTVTYYYVRKIRLPRNIYAEAVLPEIMIGYLRGLAVIVEDVEFARRLYKEGFYGRFLGYDKVKRDEVEKINAPLILGLYEALYLAEKGRLKVMGEDGREVAPEELAALGRERMRNFDEIYKIYKYFRDLGYVVKSGLKFGALFSVYEKGPGIDHAPMVVVFLEPDKGISATDITRGGRLSHSVRKTWTLATVLRQTGEVVLLGFGWARL"}},
  "molecular_target": "the molecule itself",
  "assay": "SEC",
  "data": [
    {"protein": "B1", "values": [
      {"measurement": "stoichiometry N", "result": 2}
    ]}
  ]
}
